Data on four molecules can be found in patent publication US20240409635A1 (VIBRANT PHARMA, published 2024).

Holding throughout (assay): BLI, antibody on AHC sensor, antigen as analyte
For orientation: In BLI a coated tip is dipped into the sample, and binding shifts an interference pattern.

The target in test [1] is T1, recombinant human protein CD3ε/δ (ACRO systems, CDD-H52W1) (human, UniProt P07766 23-126; P04234 22-105).
T1 construct: Bought heterodimer

Test [2] deals with T2, recombinant human tumor antigen CEACAM-6 (ACRO systems, CE6-H5223) (human, UniProt P40199 35-320).
T2 construct: Bought
T2 sequence (looked up): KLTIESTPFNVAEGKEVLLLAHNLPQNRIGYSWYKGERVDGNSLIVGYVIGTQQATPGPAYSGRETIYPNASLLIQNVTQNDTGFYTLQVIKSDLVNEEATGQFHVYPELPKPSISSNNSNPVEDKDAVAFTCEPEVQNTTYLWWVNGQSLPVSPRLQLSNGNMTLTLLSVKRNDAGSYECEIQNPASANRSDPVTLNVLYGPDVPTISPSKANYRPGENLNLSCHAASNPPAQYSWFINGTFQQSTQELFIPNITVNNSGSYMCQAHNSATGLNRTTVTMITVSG

For test [3], the target named is T3, recombinant human tumor antigen HER2 (ERBB2, ACRO systems, HE2-H5212) (human, UniProt P04626 23-652).
T3 construct: Bought

T1 sequence (P07766 23-126, stated change not applied, chain 1 of 2): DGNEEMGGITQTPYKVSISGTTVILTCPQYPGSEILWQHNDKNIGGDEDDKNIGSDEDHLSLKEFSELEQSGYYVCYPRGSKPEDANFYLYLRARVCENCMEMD
T1 sequence (P04234 22-105, stated change not applied, chain 2 of 2): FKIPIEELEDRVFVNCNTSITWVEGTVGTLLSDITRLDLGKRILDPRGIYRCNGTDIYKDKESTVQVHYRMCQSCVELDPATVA

B1: unilateral CD3/CEA-CAM6/HER2 trispecific antibody 701 (other)
chain 1: EVKLLESGGGLVQPKGSLKLSCAASGFTFNTYAMNWVRQAPGKGLEWVARIRSKYNNYATYYADSVKDRFTISRDDSQSILYLQMNNLKTEDTAMYYCVRHGNFGNSYVSWFAYWGQGTLVTVSSASTKGPSVFPLAPCSRSTSESTAALGCLVKDYFPEPVTVSWNSGALTSGVHTFPAVLQSSGLYSLSSVVTVPSSSLGTKTYTCNVDHKPSNTKVDKRVESKYGPPCPPCPAPEAAGGPSVFLFPPKPKDTLMISRTPEVTCVVVDVSQEDPEVQFNWYVDGVEVHNAKTKPREEQFNSTYRVVSVLTVLHQDWLNGKEYKCKVSNKGLPSSIEKTISKAKGQPREPQVYTLPPCQEEMTKNQVSLWCLVKGFYPSDIAVEWESNGQPENNYKTTPPVLDSDGSFFLYSRLTVDKSRWQEGNVFSCSVMHEALHNHYTQKSLSLSL
chain 2: QVQLVQSGGGLVQAGGSLRLSCAASGRTFSSYAMAWFRQAPGKEREFVAAISWSGANIYVADSVKGRFTISRDNAKDTVYLQMNSLKPEDTAVYYCAVKLGFAPVEERQYDYWGQGTQVTVSSESKYGPPCPPCPAPEAAGGPSVFLFPPKPKDTLMISRTPEVTCVVVDVSQEDPEVQFNWYVDGVEVHNAKTKPREEQFNSTYRVVSVLTVLHQDWLNGKEYKCKVSNKGLPSSIEKTISKAKGQPREPQVCTLPPSQEEMTKNQVSLSCAVKGFYPSDIAVEWESNGQPENNYKTTPPVLDSDGSFFLVSRLTVDKSRWQEGNVFSCSVMHEALHNRFTQKSLSLSL
chain 3: QAVVTQESALTTSPGETVTLTCRSSTGAVTTSNYANWVQEKPDHLFTGLIGGTNKRAPGVPARFSGSLIGDKAALTITGAQTEDEAIYFCALWYSNLWVFGGGTKVEIKRTVAAPSVFIFPPSDEQLKSGTASVVCLLNNFYPREAKVQWKVDNALQSGNSQESVTEQDSKDSTYSLSSTLTLSKADYEKHKVYACEVTHQGLSSPVTKSFNRGECGGGGSGGGGSQVKLEESGGGLVQAGGSLRLSCRTSGRTNSVYTMGWFRQAPGKEREFVAQIMWGAGTNTHYADSVKGRFTISRDSAESTVYLQMNSLKPEDTAVYYCAANRGIPIAGRQYDYWGQGTQVTVSS
Take B1: in test [1], the dissociation constant (Kd) – broadly, a measure of binding affinity in units of concentration – was 1.3 nM; the koff – broadly, the rate constant with which the complex falls apart – stood at 0.000402 s⁻¹; the kon (in general, a measure of how fast the partners come together) is 309000 M⁻¹ s⁻¹. In addition, in test [2], the dissociation constant Kd is 13.3 nM, the dissociation rate constant (koff) amounted to 0.00297 s⁻¹ and the kon is 223000 M⁻¹ s⁻¹. Moreover, in test [3], the Kd amounted to 37.5 nM, the off-rate (koff) stood at 0.00693 s⁻¹ and the on-rate constant (kon) turned out to be 185000 M⁻¹ s⁻¹.

B2: unilateral CD3/CEA-CAM6/HER2 trispecific antibody 710 (other)
chain 1: QVKLEESGGGLVQAGGSLRLSCRTSGRTNSVYTMGWFRQAPGKEREFVAQIMWGAGTNTHYADSVKGRFTISRDSAESTVYLQMNSLKPEDTAVYYCAANRGIPIAGRQYDYWGQGTQVTVSSESKYGPPCPPCPAPEAAGGPSVFLFPPKPKDTLMISRTPEVTCVVVDVSQEDPEVQFNWYVDGVEVHNAKTKPREEQFNSTYRVVSVLTVLHQDWLNGKEYKCKVSNKGLPSSIEKTISKAKGQPREPQVYTLPPCQEEMTKNQVSLWCLVKGFYPSDIAVEWESNGQPENNYKTTPPVLDSDGSFFLYSRLTVDKSRWQEGNVFSCSVMHEALHNHYTQKSLSLSL
chain 2: EVKLLESGGGLVQPKGSLKLSCAASGFTFNTYAMNWVRQAPGKGLEWVARIRSKYNNYATYYADSVKDRFTISRDDSQSILYLQMNNLKTEDTAMYYCVRHGNFGNSYVSWFAYWGQGTLVTVSSASTKGPSVFPLAPCSRSTSESTAALGCLVKDYFPEPVTVSWNSGALTSGVHTFPAVLQSSGLYSLSSVVTVPSSSLGTKTYTCNVDHKPSNTKVDKRVESKYGPPCPPCPAPEAAGGPSVFLFPPKPKDTLMISRTPEVTCVVVDVSQEDPEVQFNWYVDGVEVHNAKTKPREEQFNSTYRVVSVLTVLHQDWLNGKEYKCKVSNKGLPSSIEKTISKAKGQPREPQVCTLPPSQEEMTKNQVSLSCAVKGFYPSDIAVEWESNGQPENNYKTTPPVLDSDGSFFLVSRLTVDKSRWQEGNVFSCSVMHEALHNRFTQKSLSLSL
chain 3: QVQLVQSGGGLVQAGGSLRLSCAASGRTFSSYAMAWFRQAPGKEREFVAAISWSGANIYVADSVKGRFTISRDNAKDTVYLQMNSLKPEDTAVYYCAVKLGFAPVEERQYDYWGQGTQVTVSSGGGGSGGGGSQAVVTQESALTTSPGETVTLTCRSSTGAVTTSNYANWVQEKPDHLFTGLIGGTNKRAPGVPARFSGSLIGDKAALTITGAQTEDEAIYFCALWYSNLWVFGGGTKVEIKRTVAAPSVFIFPPSDEQLKSGTASVVCLLNNFYPREAKVQWKVDNALQSGNSQESVTEQDSKDSTYSLSSTLTLSKADYEKHKVYACEVTHQGLSSPVTKSFNRGEC
For B2, the Kd in test [1] is 0.686 nM; in test [2], 4.48 nM; in test [3], 15.4 nM. Besides, the off-rate constant (koff) in test [1] was 0.000127 s⁻¹; in test [2], 0.00179 s⁻¹; in test [3], 0.00383 s⁻¹. For the same molecule, the kon in test [1] is 186000 M⁻¹ s⁻¹; in test [2], 398000 M⁻¹ s⁻¹; in test [3] it was 249000 M⁻¹ s⁻¹.

B3: unilateral CD3/CEA-CAM6/HER2 trispecific antibody 703 (other)
chain 1: EVKLLESGGGLVQPKGSLKLSCAASGFTFNTYAMNWVRQAPGKGLEWVARIRSKYNNYATYYADSVKDRFTISRDDSQSILYLQMNNLKTEDTAMYYCVRHGNFGNSYVSWFAYWGQGTLVTVSSASTKGPSVFPLAPCSRSTSESTAALGCLVKDYFPEPVTVSWNSGALTSGVHTFPAVLQSSGLYSLSSVVTVPSSSLGTKTYTCNVDHKPSNTKVDKRVESKYGPPCPPCPAPEAAGGPSVFLFPPKPKDTLMISRTPEVTCVVVDVSQEDPEVQFNWYVDGVEVHNAKTKPREEQFNSTYRVVSVLTVLHQDWLNGKEYKCKVSNKGLPSSIEKTISKAKGQPREPQVYTLPPCQEEMTKNQVSLWCLVKGFYPSDIAVEWESNGQPENNYKTTPPVLDSDGSFFLYSRLTVDKSRWQEGNVFSCSVMHEALHNHYTQKSLSLSL
chain 2: QVQLVQSGGGLVQAGGSLRLSCAASGRTFSSYAMAWFRQAPGKEREFVAAISWSGANIYVADSVKGRFTISRDNAKDTVYLQMNSLKPEDTAVYYCAVKLGFAPVEERQYDYWGQGTQVTVSSESKYGPPCPPCPAPEAAGGPSVFLFPPKPKDTLMISRTPEVTCVVVDVSQEDPEVQFNWYVDGVEVHNAKTKPREEQFNSTYRVVSVLTVLHQDWLNGKEYKCKVSNKGLPSSIEKTISKAKGQPREPQVCTLPPSQEEMTKNQVSLSCAVKGFYPSDIAVEWESNGQPENNYKTTPPVLDSDGSFFLVSRLTVDKSRWQEGNVFSCSVMHEALHNRFTQKSLSLSL
chain 3: QVKLEESGGGLVQAGGSLRLSCRTSGRTNSVYTMGWFRQAPGKEREFVAQIMWGAGTNTHYADSVKGRFTISRDSAESTVYLQMNSLKPEDTAVYYCAANRGIPIAGRQYDYWGQGTQVTVSSGGGGSGGGGSQAVVTQESALTTSPGETVTLTCRSSTGAVTTSNYANWVQEKPDHLFTGLIGGTNKRAPGVPARFSGSLIGDKAALTITGAQTEDEAIYFCALWYSNLWVFGGGTKVEIKRTVAAPSVFIFPPSDEQLKSGTASVVCLLNNFYPREAKVQWKVDNALQSGNSQESVTEQDSKDSTYSLSSTLTLSKADYEKHKVYACEVTHQGLSSPVTKSFNRGEC
Take B3: in test [1], the dissociation constant (Kd) was 0.379 nM, the dissociation rate constant (koff) came to 8.4e-05 s⁻¹ and the on-rate constant (kon) turned out to be 222000 M⁻¹ s⁻¹. In test [2], the equilibrium dissociation constant (Kd) is 5.16 nM, the koff was 0.00187 s⁻¹ and the on-rate constant (kon) was 363000 M⁻¹ s⁻¹. In addition, in test [3], the dissociation constant Kd amounted to 16.3 nM, the koff came out at 0.00356 s⁻¹ and the association rate constant (kon) amounted to 218000 M⁻¹ s⁻¹.

B4: unilateral CD3/CEA-CAM6/HER2 trispecific antibody 709 (other)
chain 1: EVKLLESGGGLVQPKGSLKLSCAASGFTFNTYAMNWVRQAPGKGLEWVARIRSKYNNYATYYADSVKDRFTISRDDSQSILYLQMNNLKTEDTAMYYCVRHGNFGNSYVSWFAYWGQGTLVTVSSASTKGPSVFPLAPCSRSTSESTAALGCLVKDYFPEPVTVSWNSGALTSGVHTFPAVLQSSGLYSLSSVVTVPSSSLGTKTYTCNVDHKPSNTKVDKRVESKYGPPCPPCPAPEAAGGPSVFLFPPKPKDTLMISRTPEVTCVVVDVSQEDPEVQFNWYVDGVEVHNAKTKPREEQFNSTYRVVSVLTVLHQDWLNGKEYKCKVSNKGLPSSIEKTISKAKGQPREPQVYTLPPCQEEMTKNQVSLWCLVKGFYPSDIAVEWESNGQPENNYKTTPPVLDSDGSFFLYSRLTVDKSRWQEGNVFSCSVMHEALHNHYTQKSLSLSL
chain 2: QVKLEESGGGLVQAGGSLRLSCRTSGRTNSVYTMGWFRQAPGKEREFVAQIMWGAGTNTHYADSVKGRFTISRDSAESTVYLQMNSLKPEDTAVYYCAANRGIPIAGRQYDYWGQGTQVTVSSESKYGPPCPPCPAPEAAGGPSVFLFPPKPKDTLMISRTPEVTCVVVDVSQEDPEVQFNWYVDGVEVHNAKTKPREEQFNSTYRVVSVLTVLHQDWLNGKEYKCKVSNKGLPSSIEKTISKAKGQPREPQVCTLPPSQEEMTKNQVSLSCAVKGFYPSDIAVEWESNGQPENNYKTTPPVLDSDGSFFLVSRLTVDKSRWQEGNVFSCSVMHEALHNRFTQKSLSLSL
chain 3: QVQLVQSGGGLVQAGGSLRLSCAASGRTFSSYAMAWFRQAPGKEREFVAAISWSGANIYVADSVKGRFTISRDNAKDTVYLQMNSLKPEDTAVYYCAVKLGFAPVEERQYDYWGQGTQVTVSSGGGGSGGGGSQAVVTQESALTTSPGETVTLTCRSSTGAVTTSNYANWVQEKPDHLFTGLIGGTNKRAPGVPARFSGSLIGDKAALTITGAQTEDEAIYFCALWYSNLWVFGGGTKVEIKRTVAAPSVFIFPPSDEQLKSGTASVVCLLNNFYPREAKVQWKVDNALQSGNSQESVTEQDSKDSTYSLSSTLTLSKADYEKHKVYACEVTHQGLSSPVTKSFNRGEC
With B4, in test [1], the Kd came to 0.351 nM, the off-rate (koff) was 6.18e-05 s⁻¹ and the on-rate constant (kon) stood at 176000 M⁻¹ s⁻¹. Further, in test [2], the Kd worked out at 4.16 nM, the koff was 0.0018 s⁻¹ and the kon worked out at 433000 M⁻¹ s⁻¹. For the same molecule, in test [3], the Kd came to 20.7 nM, the off-rate constant (koff) was 0.00455 s⁻¹ and the kon stood at 219000 M⁻¹ s⁻¹.
